Results published in PMC12861478, “Amino acid transporter CsBAT links GABA accumulation to flavonoid metabolism in Camellia sinensis” (Horticulture Research, 2025).

How the values were obtained:
Assay in all cases: cells, lysate or membranes
[1] = substrate: NCCCC(=O)O; details: transport; nitrogen-starved cells in nitrogen-free YNB; 0.09375–8 mM GABA; H+-dependent
[2] = substrate: CCNC(=O)CC[C@H](N)C(=O)O; details: transport; nitrogen-starved cells in nitrogen-free YNB
[3] = substrate: NC(=O)CC[C@H](N)C(=O)O; details: transport; nitrogen-starved cells in nitrogen-free YNB
[4] = substrate: N[C@@H](CCC(=O)O)C(=O)O; details: transport; nitrogen-starved cells in nitrogen-free YNB

B1: CsBAT (Camellia sinensis) (protein)
chain: MGWHSHSHVQNGDSSLDTGHTRLHELGYKQELKRDLSVVSNFAFSFSIISVLTGITTLYNTGLNYGGPVVLVYGWLIAGVFTMIVGLSMAEICSSYPTSGGLYYWSAKLAGPSWAPFASWLTGWFNIVGQWAVTTSVDFSLAQLIQVIILLSTGGKNGGGYQASKYVVIGIHGGILLLHAIINSLPITWLSLFGQFAALWNLIGVFVLMILIPTVAKEKASAKFVFTFFNTDNGDGINSKVYIFVLGLLMSQYTLTGYDASAHMTEETKSADKNGPKGIISAIGISVIVGWGYLLGVTFAVTKIPNLLSENNDAGGYAIAEVFYLAFKNRYGNGIGGIICLGVVAVAIFFCGMSSITSNSRMAYAFSRDGAMPLSSVWHKVNKHEVPLNAVWLSAIIAFCMALTSLGSIVAFQAMVSIATIGLYIAYALPIFFRVTLARKSFTPGPFNLGRYGVLVGWIAVLWVATISVLFSLPVSYPITDQTLNYTPVAVGGLLILTVASWIFSARHWFKGPITNIDDVL
[1]
  Km: 290 ± 20 µM
[2]
  Km: 360 ± 30 µM
[3]
  Km: 400 ± 40 µM
[4]
  Km: 580 ± 50 µM
